# Measured values reported in patent US7115556B2, “Use of anti-prolactin agents to treat proliferative conditions” (Greenville Hospital System, priority 1998, dated 2006).
# B1: hPRL-G129R: variant of human prolactin having a substitution of the glycine at position 129 with an arginine residue; prolactin receptor antagonist (protein)
# chain: LPICPGGAARCQVTLRDLFDRAVVLSHYIHNLSSEMFSEFDKRYTHGRGFITKAINSCHTSSLATPEDKEQAQQMNQKDFLSLIVSILRSWNEPLYHLVTEVRGMQEAPEAILSKAVEIEEQTKRLLERMELIVSQVHPETKENEIYPVWSGLPSLQMADEESRLSAYYNLLHCLRRDSHKIDNYLKLLKCRIIHNNNC
# Tests used:
# MCF-7 cells [1] = test: TUNEL assay, MCF-7; assay type: cell-based, human; settings: 250 ng G129R, 24 hours
# Experimental: (§1) Cell Culture. T-47D cells obtained from ATCC were grown in RPMI 1640 (phenol red free), supplemented with 10% FBS (GIBCO BRL). BT-474 cells were grown in RPMI 1640 medium (phenol red free) supplemented with 10% FBS and ATCC recommended supplements. MCF-7 cells were grown in DMEM medium (phenol red free), supplemented with 10% FBS. The cells were grown at 37° C. in a humid atmosphere in the presence of 5% CO2. The MDA-MB-134 cells were grown in Leibovitz's L-15 medium supplemented with 20% FBS and grown in CO2 free atmosphere. The breast cancer cells were trypsinized (0.02% Trypsin—EDTA) and grown in their respective media (phenol red free) supplemented with 10% CSS (Charcoal stripped serum) for a week. Subsequently the cells were trypsinized again and plated onto an 8 chambered slide system (Lab Tek II) at a confluence of 60–70% per chamber. The next day treatments were performed on the breast cancer cells using their respective media(phenol red free), supplemented with 1% CSS. The MDA-MB-134 VI cells were grown in phenol red containing medium, but with the same serum conditions as the other breast cancer cells.
# Terminal deoxynucleotidly transferase mediated dUTP nick end labeling (TUNEL) assay. Nicks of the fragmented DNA are labeled at their 3-OH ends. The fluorescein-labeled dUTP is incorporated at the 3-OH ends by using the enzyme terminal deoxynucleotidyl transferase. […]
# prostate cancer cells = test: TUNEL assay, prostate cancer cells; assay type: cell-based, human; settings: 250 ng hPRL-G129R, 24 hours
# Experimental: (§2) Terminal deoxynucleotidly transferase mediated dUTP nick end labeling (TUNEL) assay. Nicks of the fragmented DNA are labeled at their 3-OH ends. The fluorescein-labeled dUTP is incorporated at the 3-OH ends by using the enzyme terminal deoxynucleotidyl transferase. After the assigned period of treatment the chambers were dismantled as per the manufacturer's instructions and the TUNEL assay (Apoptosis detection system, Fluorescein- Promega) was performed as per the manufacturer's instructions. The slide was examined under a FITC filter using an Olympus IX 70 microscope system.
# The samples were in duplicate and each sample constituted about 2 million cells
# MCF-7 cells [2] = test: Co-culture with L-G129R cells, MCF-7; assay type: cell-based, human; settings: MCF-7 co-cultured with L-G129R cells; more hPRL-G129R required than for T47-D
# Text: The co-culture experimental set-up provides a sustained presence of biologically active hPRL-G129R, thereby resulting in a maximal response in these tumor cells.
# [3] = system: T47-D human breast cancer cells; test: Light microscopic examination of T47-D cells; assay type: cell-based; settings: single dose 200 ng/ml, 4-day incubation
# Experimental: FIGS. 14A–E. Light microscopic examination of T47-D human breast cancer cells after single dose of 200 ng/ml hPRL (15B); 200 ng/ml of HPRL-G129R (15C); 200 nM of E2 (15D); or 200 nM of 4-OH-Tamoxifen (15E) treatment after 4-day incubation as compared to control (15A).×200.
# Human Breast Cancer Cell Proliferation Assays. Human PRL and hPRL-G129R were tested further for their ability to stimulate/inhibit breast cancer cell proliferation in cell culture. Light microscopic examination of breast cancer cell proliferation after hPRL, hPRL-G129R, E2 and 4-OH-Tamoxifen is shown in FIGS. 14A–E. It is clear that there is a significant difference in cell density between hPRL (15B), hPRL-G129R(15C) and E2 (15D), 4-OH-Tamoxifen (15E) treated cells.
# [4] = system: tyrosine phosphorylation of STAT5 protein in T-47D human breast cancer cells; test: hPRL induction of tyrosine phosphorylation of STAT5 protein (Example 8); assay type: cell-based
# Text: Assay of hPRL induction of tyrosine phosphorylation of STAT5 protein. […] Tyrosyl phosphorylation of STAT 5 is a receptor mediated event and is thought to be an important step in ligand-induced signal transduction (Wakao et al., 1994, EMBO J. 13: 2182–2191; Kazansky et al., 1995, Mol. Endocrinol. 9:1598–1609; Waxman et al., 1995, J. Biol. Chem. 270:13262–13270). This assay was used to evaluate the ability of hPRL and hPRLA to inhibit induction of STAT 5 phosphorylation by wild type PRL.
# Briefly, human breast cancer cells were plated in 12-well plates. After pre-incubation in serum-free DMEM for 2–3 hours, the cells were exposed to various concentration of hPRL and hPRLA in serum-free DMEM. The cells were incubated for 15 min at 37° C., washed once with PBS, and lysed in 300 μl lysis buffer (50 mM Tris-HCl, pH 6.8, 1% SDS, 1% β-mecaptoethanol, 0.1M DTT, 5% Sucrose, 100 uM Sodium Orthovanadate, and 0.6% bromphenol blue). Thirty microliters of cell lysates were subjected to 4–12.5% SDS-PAGE and immunoblot analysis using horse radish peroxidase (HRP)-conjugated anti-phosphotyrosine antibody PY20 and ECL reagent kit (Amersham, Ill.). Blots were then exposed to X-ray films and developed using standard procedures (Kodak, Rochester, N.Y.). This assay has been described in Chen et al., 1994, J. Biol. Chem. 269: 15892–15897; Chen et al., 1995, Endocrinol. 136:660–667; Wang et al., 1994, Proc. Natl. Acad. Sci. U.S.A. 91:1391–1395; Chen et al., 1995, Mol. Endocrinol. 9(3):292–302; Harding et al., 1996, J. Biol. Chem. 271(12):6708–6712.
# BT-474 cells = test: TUNEL assay, BT-474; assay type: cell-based, human
# Experimental: as §1, §2
molecule,measurement,setting,value
B1,induction of apoptosis DNA fragmentation,MCF-7 cells [1],induced apoptosis
same,apoptosis of two prostate cancer cells,prostate cancer cells,underwent apoptosis
same,inhibition of cell proliferation in co-culture,MCF-7 cells [2],Complete inhibition
same,overall cell condition under light microscopy,[3],not as healthy
same,induction of phosphorylation of STAT5 proteins,"[4]; T-47D cells, 5 nM of hormone alone, Western blot FIG. 3",absent
same,hPRL-induced phosphorylation of STAT5 proteins in presence of hPRLA,[4]; equal amounts: 5 nM hPRL and 5 nM hPRLA (lane 4),partially eliminated
same,hPRL-induced phosphorylation of STAT5 proteins in presence of hPRLA,[4]; excess of hPRLA: 5 nM hPRL and 25 nM hPRLA (lane 5),undetectable
same,induction of apoptosis DNA fragmentation,"BT-474 cells; 250 ng G129R, 24 hours",induced apoptosis
same,"apoptosis and hPRL competition, as in T-47D",BT-474 cells; BT-474 cells,same results
